Experimental data taken from article PMC5979328, “Establishing a Split Luciferase Assay for Proteinkinase G (PKG) Interaction Studies” (International Journal of Molecular Sciences, 2018).

T1: cGKIα-CBRC (proteinkinase G isoform Iα fused at its C-terminus to the C-terminal fragment of click beetle red … (UniProt P00516 1-671))
T1 construct: cGMP-dependent protein kinase I, alpha isoform (cGKIα, PKGIα); also called PKGIα; cGMP dependent kinase Iα; source: COS-7 cells, calcium phosphate transfection, in living cells; not shown: CBRC (click beetle red luciferase aa 395-542; joined by a 17-residue Gly/Ser linker), C-terminal, kept
T1 sequence (looked up): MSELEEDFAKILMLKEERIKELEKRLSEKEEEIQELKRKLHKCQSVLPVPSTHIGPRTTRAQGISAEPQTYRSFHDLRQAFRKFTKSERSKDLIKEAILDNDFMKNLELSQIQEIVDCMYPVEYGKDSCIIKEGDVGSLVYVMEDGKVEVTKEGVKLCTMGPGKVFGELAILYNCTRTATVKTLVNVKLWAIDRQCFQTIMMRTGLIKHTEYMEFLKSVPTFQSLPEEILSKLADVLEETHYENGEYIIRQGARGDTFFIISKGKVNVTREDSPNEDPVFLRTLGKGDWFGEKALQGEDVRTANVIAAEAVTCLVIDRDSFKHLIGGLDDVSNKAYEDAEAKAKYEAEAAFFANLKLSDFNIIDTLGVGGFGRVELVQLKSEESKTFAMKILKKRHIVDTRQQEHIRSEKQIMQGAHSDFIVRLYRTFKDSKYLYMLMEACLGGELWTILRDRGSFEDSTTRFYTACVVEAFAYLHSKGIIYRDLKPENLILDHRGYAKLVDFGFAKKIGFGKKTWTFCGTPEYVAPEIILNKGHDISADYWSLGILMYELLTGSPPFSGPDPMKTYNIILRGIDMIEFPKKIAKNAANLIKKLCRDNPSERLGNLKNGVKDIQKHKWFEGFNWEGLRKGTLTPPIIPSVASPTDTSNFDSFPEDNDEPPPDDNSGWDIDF

B1: cGKIα in primary mesangial cells (enzyme, UniProt P0C605 1-671, looked up)
chain: MSELEEDFAKILMLKEERIKELEKRLSEKEEEIQELKRKLHKCQSVLPVPSTHIGPRTTRAQGISAEPQTYRSFHDLRQAFRKFTKSERSKDLIKEAILDNDFMKNLELSQIQEIVDCMYPVEYGKDSCIIKEGDVGSLVYVMEDGKVEVTKEGVKLCTMGPGKVFGELAILYNCTRTATVKTLVNVKLWAIDRQCFQTIMMRTGLIKHTEYMEFLKSVPTFQSLPDEILSKLADVLEETHYENGEYIIRQGARGDTFFIISKGQVNVTREDSPSEDPVFLRTLGKGDWFGEKALQGEDVRTANVIAAEAVTCLVIDRDSFKHLIGGLDDVSNKAYEDAEAKAKYEAEAAFFANLKLSDFNIIDTLGVGGFGRVELVQLKSEESKTFAMKILKKRHIVDTRQQEHIRSEKQIMQGAHSDFIVRLYRTFKDSKYLYMLMEACLGGELWTILRDRGSFEDSTTRFYTACVVEAFAYLHSKGIIYRDLKPENLILDHRGYAKLVDFGFAKKIGFGKKTWTFCGTPEYVAPEIILNKGHDISADYWSLGILMYELLTGSPPFSGPDPMKTYNIILRGIDMIEFPKKIAKNAANLIKKLCRDNPSERLGNLKNGVKDIQKHKWFEGFNWEGLRKGTLTPPIIPSVASPTDTSNFDSFPEDSDEPPPDDNSGWDIDF
notes: cGMP-dependent protein kinase I, alpha isoform, in primary mesangial cells; also called the kinase; PKGIα
B2: CBRN-RGS2 (regulator of G-protein signaling 2 fused at its N-terminus to the N-terminal fragment of click beetle red luciferase) (natural protein, UniProt P41220 1-211, looked up)
chain: MQSAMFLAVQHDCRPMDKSAGSGHKSEEKREKMKRTLLKDWKTRLSYFLQNSSTPGKPKTGKKSKQQAFIKPSPEEAQLWSEAFDELLASKYGLAAFRAFLKSEFCEENIEFWLACEDFKKTKSPQKLSSKARKIYTDFIEKEAPKEINIDFQTKTLIAQNIQEATSGCFTTAQKRVYSLMENNSYPRFLESEFYQDLCKKPQITTEPHAT
notes: regulator of G-protein signaling 2 (RGS2); cDNA from pCMV6_RGS2 (OriGene); source: COS-7 cells, calcium phosphate transfection, in living cells; not shown: CBRN (click beetle red luciferase aa 1-416; joined by a 17-residue Gly/Ser linker), N-terminal, kept

Columns and labels:
[1] = target: the molecule itself; assay: Western blot of monomer and dimer under non-reducing conditions; primary mesangial cells, control or stimulated with H2O2, non-reducing conditions (Figure S3)
[2] = target: T1, cGKIα-CBRC (proteinkinase G isoform Iα …); assay: split reporter (BiFC, NanoBiT); click beetle red luciferase complementation (CBRN/CBRC) in co-transfected COS-7 cells, 15 µg DNA, vector ratios 1:25 to 1:100 (mostly 1:50); cells untreated or stimulated for 24 h with 8-Br-cGMP (0.5-2.5 mM), 8-pCPT-cGMP (100-500 µM) or 8-Br-cAMP (0.125-1 mM); Bright-Glo reagent, plate reader, RLU; conditions: partners not purified

Binder	stoichiometry N [1]	fold signal amplification (100 µM 8-pCPT-cGMP, treated/untreated) [2] [fold]	fold signal amplification (200 µM 8-pCPT-cGMP, treated/untreated) [2] [fold]	fold signal amplification (0.5 mM 8-Br-cGMP, treated/untreated) [2] [fold]	fold signal amplification (500 µM 8-pCPT-cGMP, treated/untreated) [2] [fold]	fold signal amplification (1 mM 8-Br-cGMP, 24 h, against basal luminescence) [2] [fold]	fold signal amplification (1 mM 8-Br-cGMP, treated/untreated) [2] [fold]	fold signal amplification (2.5 mM 8-Br-cGMP, treated/untreated) [2] [fold]
B1	2							
B2		3.5	3.8	2.2	3.9	~3.5	3.6	2.8
